# Measurements: paper PMC3269379, “The Host-Pathogen interaction of human cyclophilin A and HIV-1 Vpr requires specific N-terminal and novel C-terminal domains” (BMC Structural Biology, 2011)
# Like-named read-outs stand apart in the source and are kept apart here.
# Biological target: human cyclophilin A (human) (UniProt P62937)
# Experiment: SPR
# Sequence of human cyclophilin A (human) (P62937 whole entry): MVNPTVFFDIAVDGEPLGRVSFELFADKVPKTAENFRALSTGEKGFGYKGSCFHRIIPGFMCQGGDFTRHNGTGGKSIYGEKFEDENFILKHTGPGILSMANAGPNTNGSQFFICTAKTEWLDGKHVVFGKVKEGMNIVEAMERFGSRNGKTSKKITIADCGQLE
# Sequence of HIV-1 capsid (CA) (O93182 133-363): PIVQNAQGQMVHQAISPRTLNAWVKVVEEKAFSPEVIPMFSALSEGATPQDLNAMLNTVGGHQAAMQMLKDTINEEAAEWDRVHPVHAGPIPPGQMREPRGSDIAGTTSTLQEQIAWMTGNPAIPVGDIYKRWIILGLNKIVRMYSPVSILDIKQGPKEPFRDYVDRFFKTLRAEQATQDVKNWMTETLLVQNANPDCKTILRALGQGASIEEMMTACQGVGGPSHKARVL
Substance,Kd [µM],koff [s⁻¹],kon [M⁻¹ s⁻¹],Kd (cited from earlier work) [µM]
"Vpr^75-90 (R76Q, V83I, R80A, T84I) (peptide)",2.7,0.095,42000,
"Vpr^75-90 (R76Q, V83I, T84I) (peptide)",4.7,0.071,16000,
HIV-1 capsid (CA) (from UniProt O93182),,,,16
